According to US20170224836A1 (Novartis, published 2017):

Key:
hCDH6aa54-615 APPavi = molecular target: T1, hCDH6aa54-615 APPavi (human, UniProt P55285 54-615); assay: SPR binning
T1 sequence: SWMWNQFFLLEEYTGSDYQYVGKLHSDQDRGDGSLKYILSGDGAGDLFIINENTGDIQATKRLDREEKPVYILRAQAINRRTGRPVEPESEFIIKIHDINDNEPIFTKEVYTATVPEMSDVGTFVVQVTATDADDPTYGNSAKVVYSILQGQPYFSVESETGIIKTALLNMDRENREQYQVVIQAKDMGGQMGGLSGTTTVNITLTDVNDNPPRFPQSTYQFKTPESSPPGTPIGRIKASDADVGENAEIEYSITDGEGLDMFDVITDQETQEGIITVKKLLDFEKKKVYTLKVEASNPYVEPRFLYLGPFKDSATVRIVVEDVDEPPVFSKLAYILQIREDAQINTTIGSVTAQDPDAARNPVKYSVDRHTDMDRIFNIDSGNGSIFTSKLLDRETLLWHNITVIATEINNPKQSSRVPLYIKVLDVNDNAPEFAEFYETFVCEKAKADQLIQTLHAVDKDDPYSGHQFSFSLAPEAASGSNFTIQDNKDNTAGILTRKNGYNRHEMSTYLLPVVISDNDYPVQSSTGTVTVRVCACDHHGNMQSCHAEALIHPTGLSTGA

mouse CDH6 on cells = molecular target: T2, mouse CDH6 on cells (mouse, UniProt P97326 54-790); assay: FACS on CHO-mouseCDH6 cells
T2 sequence (looked up): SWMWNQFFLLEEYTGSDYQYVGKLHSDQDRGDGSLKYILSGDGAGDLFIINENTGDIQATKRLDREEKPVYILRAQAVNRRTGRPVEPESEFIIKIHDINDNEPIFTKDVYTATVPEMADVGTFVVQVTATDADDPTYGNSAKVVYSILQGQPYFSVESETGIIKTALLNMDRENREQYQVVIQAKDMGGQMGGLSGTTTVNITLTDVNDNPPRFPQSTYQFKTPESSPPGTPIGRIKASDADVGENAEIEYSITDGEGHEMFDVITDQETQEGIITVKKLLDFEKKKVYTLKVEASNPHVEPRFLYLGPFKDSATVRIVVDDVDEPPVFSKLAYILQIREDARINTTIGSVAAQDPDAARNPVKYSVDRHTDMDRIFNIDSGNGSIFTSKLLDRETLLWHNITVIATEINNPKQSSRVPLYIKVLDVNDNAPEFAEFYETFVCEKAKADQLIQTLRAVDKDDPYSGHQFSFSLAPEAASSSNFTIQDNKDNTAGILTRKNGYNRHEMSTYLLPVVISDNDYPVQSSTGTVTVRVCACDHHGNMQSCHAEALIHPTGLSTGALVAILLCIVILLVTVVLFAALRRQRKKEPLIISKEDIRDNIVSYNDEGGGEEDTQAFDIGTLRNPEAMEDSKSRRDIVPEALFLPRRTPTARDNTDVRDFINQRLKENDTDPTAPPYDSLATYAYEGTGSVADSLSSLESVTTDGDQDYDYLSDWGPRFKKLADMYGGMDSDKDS

human CDH6 on cells = molecular target: T3, human CDH6 on cells (human, UniProt P55285 54-790); assay: FACS on CHO-TO-humanCDH6 cells plus tetracycline
T3 sequence: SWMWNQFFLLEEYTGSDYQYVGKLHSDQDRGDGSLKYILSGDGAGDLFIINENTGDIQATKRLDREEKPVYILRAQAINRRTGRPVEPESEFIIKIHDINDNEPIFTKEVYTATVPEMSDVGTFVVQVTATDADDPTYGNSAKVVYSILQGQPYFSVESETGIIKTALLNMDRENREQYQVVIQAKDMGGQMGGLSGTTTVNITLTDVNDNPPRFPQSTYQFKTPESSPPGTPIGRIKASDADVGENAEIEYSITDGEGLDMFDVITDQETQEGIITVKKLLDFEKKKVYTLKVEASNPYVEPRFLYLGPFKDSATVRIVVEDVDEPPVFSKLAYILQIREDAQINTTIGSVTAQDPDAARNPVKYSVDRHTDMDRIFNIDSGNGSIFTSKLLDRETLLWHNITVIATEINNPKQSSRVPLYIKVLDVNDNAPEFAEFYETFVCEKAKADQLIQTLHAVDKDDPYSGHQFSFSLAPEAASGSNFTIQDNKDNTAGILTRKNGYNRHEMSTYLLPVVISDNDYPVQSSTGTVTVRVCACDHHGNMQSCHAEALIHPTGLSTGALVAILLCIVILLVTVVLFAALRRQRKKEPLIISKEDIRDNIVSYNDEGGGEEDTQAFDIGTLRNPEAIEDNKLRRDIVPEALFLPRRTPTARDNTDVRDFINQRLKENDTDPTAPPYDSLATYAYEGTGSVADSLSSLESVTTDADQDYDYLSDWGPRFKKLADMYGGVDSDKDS

rat CDH6 on cells = molecular target: T4, rat CDH6 on cells (rat, UniProt P55280 54-789); assay: FACS on CHO-ratCDH6 cells
T4 sequence (looked up): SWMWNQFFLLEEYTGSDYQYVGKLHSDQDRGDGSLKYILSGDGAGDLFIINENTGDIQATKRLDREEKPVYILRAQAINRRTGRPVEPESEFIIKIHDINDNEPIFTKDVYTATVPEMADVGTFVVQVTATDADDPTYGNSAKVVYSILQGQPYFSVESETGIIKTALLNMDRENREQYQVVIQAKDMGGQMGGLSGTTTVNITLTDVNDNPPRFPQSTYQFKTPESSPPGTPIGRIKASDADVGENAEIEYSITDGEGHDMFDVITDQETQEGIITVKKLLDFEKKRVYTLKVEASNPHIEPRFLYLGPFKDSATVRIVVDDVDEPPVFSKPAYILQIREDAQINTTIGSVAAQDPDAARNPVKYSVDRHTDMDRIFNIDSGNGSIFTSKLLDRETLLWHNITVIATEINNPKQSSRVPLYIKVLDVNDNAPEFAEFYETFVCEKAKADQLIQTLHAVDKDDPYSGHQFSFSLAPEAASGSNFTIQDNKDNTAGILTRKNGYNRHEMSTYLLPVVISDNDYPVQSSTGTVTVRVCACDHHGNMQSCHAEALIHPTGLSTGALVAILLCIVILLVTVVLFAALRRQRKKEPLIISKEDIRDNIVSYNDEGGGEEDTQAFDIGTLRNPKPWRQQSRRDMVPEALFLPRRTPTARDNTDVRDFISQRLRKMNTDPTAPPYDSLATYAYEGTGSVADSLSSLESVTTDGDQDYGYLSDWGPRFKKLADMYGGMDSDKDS

B1: NOV0712 (antibody, human IgG1, kappa, V domains shown)
VH: QVQLLESGGGLVQPGGSLRLSCAASGFTFSSHGMHWVRQAPGKGLEWVSVISGSGSNTGYADSVKGRFTISRDNSKNTLYLQMNSLRAEDTAVYYCARQWGSYAFDSWGQGTLVTVSS
VL: DIQMTQSPSSLSASVGDRVTITCRASQSISSYLNWYQQKPGKAPKLLIYAVSTLQSGVPSRFSGSGSGTDFTLTISSLQPEDFATYYCQQSGTFPPTTFGQGTKVEIKR
response of secondary antibody on primary antibody-CDH6 complex (hCDH6aa54-615 APPavi): 24.7
EC50 (read off the curve) (mouse CDH6 on cells): ~1 nM
EC50 (read off the curve) (human CDH6 on cells): ~0.9 nM
EC50 (read off the curve) (rat CDH6 on cells): ~1 nM
